The text below walks through data of patent publication US12295997B2, “Prostate neoantigens and their uses” (Janssen Biotech, Inc., priority 2020, dated 2025).

The test system of assay [1] is CD8+ T cells in PBMCs from human patients with metastatic castrate-resistant prostate cancer. Nature of the assay: Patient PBMC restimulation assay (in vitro immunogenicity, TNFα/IFNγ intracellular flow cytometry). It is filed as cell-based. Conditions: 9-mer peptide; for Maximum frequency of TNFα^+IFNγ^+CD8^+ T cells (Percent): greatest frequency among all tested PBMC donors; for Immunogenic: patient PBMC restimulation. As for the experimental part:
PBMCs from human patients with metastatic castrate-resistant prostate cancer were thawed using media (RPMI 1640 supplemented with Glutamax, 10% HI FBS, and 1× Sodium Pyruvate). Cells were counted and plated in a 96 well round bottom microplate at a concentration of 250,000 viable cells per well. Lyophilized peptides were solubilized in 100% DMSO and diluted in media to 10 μg/mL. Neoantigen peptides were added in equal volume to PBMCs for a final concentration of 5 μg/mL. CEF Peptide Pool “Plus” (Cellular Technologies, Ltd.) was utilized as a positive control and DMSO at the same final concentration as the experimental peptides was utilized as a negative control. Human IL-15 (Peprotech) was added to all wells at final concentration of 10 ng/mL.
Plates were incubated at 37° C. (5% CO2) for a total of 13 days. Media was refreshed every 2 days with IL-15 (10 ng/mL final concentration) and IL-2 (R&D systems, 10 IU/mL final concentration). On day 12, PBMCs were re-stimulated with identical experimental peptides or controls, at same concentration as peptide stimulation on Day 1. After 1-hour incubation, protein Inhibitor Cocktail (eBioscience) was added to every well and plate was incubated overnight.
On day 13, cells were stained for intracellular flow cytometry analysis. The cells were washed with PBS and stained with Live/Dead Fixable Aqua Dead Cell stain (Thermo-Fisher). Following the live/dead stain, cells were blocked using Biotin-Free Fc Receptor Blocker (Accurate Chemical & Scientific Corp). Extracellular cellular flow panel ([…] per well in 50 μL) consisted of CD3 PerCP-Cy5.5 (Biolegend), CD4 BV421 (Biolegend), and CD8 APC-Cy7 (Biolegend). After extracellular staining, cells were fixed using Foxp3/fTranscription Factor Staining Buffer Set (eBioscience) and stained for intracellular proteins (1:50 dilution) using TNFα FITC (R&D Systems) and IFNγ BV785 (Biolegend). Cells were washed and resuspended in stain buffer and analyzed using a BD Celesta flow cytometer.
Flow cytometry cell staining analysis was completed using FlowJo v10. Cells were gated on live, singlet, CD3+ cells. The CD8+ T cells were analyzed for TNFα/IFNγ expression and the frequency of double positive TNFα/IFNγ CD8+ T cells was recorded. Responses were assessed to be positive when the frequency of double positive TNFα/IFNγ CD8+ T cells due to stimulation with an experimental peptide was increased greater than or equal to 2-fold over the DMSO only negative control for that patient. Peptides were analyzed in 1 to 7 patient samples.
The 9 mer fragments shown in Table 13 were assessed for their ability to activate T cells using the Patient PBMC restimulation assay described in Example 1 using TNFα and IFNγ production by CD8^+ T cells as a readout. Self-antigens shown in Table 15 were also used in the assays. […] PBMCs from ten patients were evaluated.

The target of assay [2] is HLA-A*03:01 (Homo sapiens, UniProt P04439). Nature of the assay: In vitro binding of neoantigens to class I MHC (UV peptide exchange, HLA class I ELISA). Conditions: 100% = same binding as positive control peptide. How it is done: (§1) The 9 mer peptides identified by bioinformatics analysis were analyzed for their binding propensities to 6 common HLA class I alleles (HLA-A*01:01, A*02:01, A*03:01, A*24:02, B*07:02, B*08:01). The principle of the method is briefly described below and consists of two parts, one involving exchange of peptide with a positive control induced by Ultraviolet (UV) radiation, and the second is an enzyme immunoassay to detect stable HLA-peptide and empty HLA complexes.
(§2) HLA-bound peptides are critical for the stability of the HLA complex. A conditional HLA class I complex was stabilized by an UV-labile peptide utilizing a different peptide (Pos) for each HLA (Pos: HLA-A*01:01: […](SEQ ID NO: 409), HLA-A*02:01: […] (SEQ ID NO: 410), HLA-A*03:01: […] (SEQ ID NO: 411), HLA-A*24:02: […] (SEQ ID NO: 412), HLA-B*07:02: […] (SEQ ID NO: 413), HLA-B*08:01: […] (SEQ ID NO: 414), which could be cleaved by UV irradiation when bound to the HLA molecule. Upon cleavage, the resulting peptide fragments dissociated from the HLA class I complex since their length was insufficient to bind stably to HLA. Under the conditions in which peptide cleavage was performed (neutral pH, on melting ice), the peptide-free HLA complex remained stable.
(§3) The exchange efficiency between the peptide of interest and Pos was analyzed using an HLA class I ELISA. The combined technologies allowed the identification of ligands for an HLA molecule of interest which are potentially immunogenic.
(§4) Exchange control peptide Pos was a high affinity binder to the relevant HLA class I allele while exchange control peptide Neg was a non-binder. The UV control represented UV-irradiation of conditional HLA class I complex in the absence of a rescue peptide.
(§5) The HLA class I ELISA is an enzyme immunoassay based on the detection of beta2-microglobulin (B2M) of (peptide-stabilized) HLA class I complexes. To this end streptavidin was bound onto polystyrene microtiter wells. After washing and blocking, HLA complex present in exchange reaction mixtures or ELISA controls was captured by the streptavidin on the microtiter plate via its biotinylated heavy chain. Non-bound material was removed by washing. Subsequently, horseradish peroxidase (HRP)-conjugated antibody to human B2M was added. The HRP-conjugated antibody binds only to an intact HLA complex present in the microtiter well because unsuccessful peptide exchange results in disintegration of the original UV-sensitive HLA complex upon UV illumination. In the latter case B2M was removed during the washing step. After removal of non-bound HRP conjugate by washing, a substrate solution was added to the wells. A coloured product formed in proportion to the amount of intact HLA complex present in the samples. After the reaction was terminated by the addition of a stop solution, absorbance was measured in a microtiter plate reader. The absorbance was normalized to the absorbance of an exchange control peptide (represents 100%). Suboptimal HLA binding of peptides with a moderate to low affinity for HLA class I molecules can also be detected by this ELISA technique (Rodenko, B et al. (2006) Nature Protocols 1: 1120-32).
(§6) Peptides that had 10% or greater exchange efficiency in one of the 6 HLA alleles were considered for further immunogenicity testing and analysis.
Binding of select neoepitopes to HLA-A*01:01, HLA-A*02:01, HLA-A*03:01, HLAA*24:02, HLAAB*07:02 and HLA-B*08:01 was evaluated using the assay described in Example 1. […] As a criterion for further evaluation, peptides with an exchange rate of at least 10% with the corresponding Pos peptide for at least one of the 6 HLA alleles that we considered for further evaluation. The exchange rates with the allele specific Pos peptides, of the 24 neoantigens so identified are summarized below in Table 17. Higher percentages correspond to stronger binding to the HLA allele.

Assay [3] addresses HLA-A*02:01 (Homo sapiens, UniProt P04439, D140Y/D185E/D98H/E176V/E277Q/G131W/G231S/I119V/I121R/I166T/I218V/L300P/L318F/N151K/N90K/P208A/P217A/Q86G/Q94H/R138H/R169H/T345S). The description is as above. Conditions: 100% = same binding as positive control peptide. How it is done: as §1, §2, §3, §4, §5, §6
(§7) Binding of select neoepitopes to HLA-A*01:01, HLA-A*02:01, HLA-A*03:01, HLAA*24:02, HLAAB*07:02 and HLA-B*08:01 was evaluated using the assay described in Example 1. […] As a criterion for further evaluation, peptides with an exchange rate of at least 10% with the corresponding Pos peptide for at least one of the 6 HLA alleles that we considered for further evaluation. The exchange rates with the allele specific Pos peptides, of the 24 neoantigens so identified are summarized below in Table 17. Higher percentages correspond to stronger binding to the HLA allele. […]

Assay [4] addresses HLA-B*07:02 (Homo sapiens, UniProt P01889). The assay is described as above. Conditions: 100% = same binding as positive control peptide. As for the experimental part:
as §1, §2, §3, §4, §5, §6, §7

Assay [5] addresses HLA-A*01:01 (Homo sapiens, UniProt P04439, A114D/A174V/A182V/D101N/D185E/E176A/E190D/L180R/Q94H/R68K/S129P/T187R/V100A/V91M/W191G). The assay is described as above. Conditions: 100% = same binding as positive control peptide. How it is done: as §1, §2, §3, §4, §5, §6, §7
The target in assay [6] is HLA-A*24:02 (Homo sapiens, UniProt P04439, D101N/D140Y/D185E/E176V/E190D/F33S/G103R/G107R/I119L/I121M/I306V/K335N/L105A/L180Q/L300P/N151K/N90K/Q86E/Q94H/R106L/R138H/R89G/T104I/T345S/V100E/W191G/Y123F). Described as above. The settings on record: 100% = same binding as positive control peptide. As for the experimental part:
as §1, §2, §3, §4, §5, §6, §7

In the case of “P48 (VQPIARELYQFTFDLLI; listed as Homo sapiens) [Peptide P48]”, in assay [1], the “Maximum frequency of TNFα^+IFNγ^+CD8^+ T cells (Percent)” value was determined as 0.220% and the Immunogenic result was “Yes”. In assay [2], the “Exchange rate with allele specific Pos peptide, HLA-A*03:01” value was determined as 4.4%. Further, the “Exchange rate with allele specific Pos peptide, HLA-A*02:01” value in assay [3] was determined as 99.3%. Moreover, the “Exchange rate with allele specific Pos peptide, HLA-B*07:02” value in assay [4] amounted to 12.8%. Also, the “Exchange rate with allele specific Pos peptide, HLA-A*01:01” value in assay [5] was found to be 4.3%. In addition, the “Exchange rate with allele specific Pos peptide, HLA-A*24:02” value in assay [6] was determined as 0.1%.
Regarding P76 (YCMAAPMGL) [Peptide P76], in assay [1], the “Maximum frequency of TNFα^+IFNγ^+CD8^+ T cells (Percent)” value is 0.170% and the Immunogenic result was “Yes”. Besides, the “Exchange rate with allele specific Pos peptide, HLA-A*03:01” value in assay [2] amounted to 6%. Moreover, the “Exchange rate with allele specific Pos peptide, HLA-A*02:01” value in assay [3] amounted to 85.9%. The “Exchange rate with allele specific Pos peptide, HLA-B*07:02” value in assay [4] amounted to 91.5%. In addition, the “Exchange rate with allele specific Pos peptide, HLA-A*01:01” value in assay [5] was determined as 0.1%. The “Exchange rate with allele specific Pos peptide, HLA-A*24:02” value in assay [6] is reported as −0.5%.
